Laboratory results reported in patent US10131702B2, “Glucagon-GLP-1-GIP triple agonist compounds” (priority 2013, dated 2018).
Like-named read-outs stand apart in the source and are kept apart here.

B1: Compound 12 (peptide)
peptide: YAQGTFTSDYSIYLDSKAAHDFVEWLLRA
HELM: PEPTIDE1{Y.[Aib].Q.G.T.F.T.S.D.Y.S.I.Y.L.D.S.K.A.A.H.D.F.V.E.W.L.L.R.A.[am]}$$$$V2.0
SMILES: CC[C@H](C)[C@H](NC(=O)[C@H](CO)NC(=O)[C@H](Cc1ccc(O)cc1)NC(=O)[C@H](CC(=O)O)NC(=O)[C@H](CO)NC(=O)[C@@H](NC(=O)[C@H](Cc1ccccc1)NC(=O)[C@@H](NC(=O)CNC(=O)[C@H](CCC(N)=O)NC(=O)C(C)(C)NC(=O)[C@@H](N)Cc1ccc(O)cc1)[C@@H](C)O)[C@@H](C)O)C(=O)N[C@@H](Cc1ccc(O)cc1)C(=O)N[C@@H](CC(C)C)C(=O)N[C@@H](CC(=O)O)C(=O)N[C@@H](CO)C(=O)N[C@@H](CCCCN)C(=O)N[C@@H](C)C(=O)N[C@@H](C)C(=O)N[C@@H](Cc1c[nH]cn1)C(=O)N[C@@H](CC(=O)O)C(=O)N[C@@H](Cc1ccccc1)C(=O)N[C@H](C(=O)N[C@@H](CCC(=O)O)C(=O)N[C@@H](Cc1c[nH]c2ccccc12)C(=O)N[C@@H](CC(C)C)C(=O)N[C@@H](CC(C)C)C(=O)N[C@@H](CCCNC(=N)N)C(=O)N[C@@H](C)C(N)=O)C(C)C
B2: Compound 14 (peptide)
peptide: YAQGTFTSDYSIYLEKKAAHDFVEWLLSA
HELM: PEPTIDE1{Y.[Aib].Q.G.T.F.T.S.D.Y.S.I.Y.L.E.K.K.A.A.H.D.F.V.E.W.L.L.S.A.[am]}$$$$V2.0
SMILES: CC[C@H](C)[C@H](NC(=O)[C@H](CO)NC(=O)[C@H](Cc1ccc(O)cc1)NC(=O)[C@H](CC(=O)O)NC(=O)[C@H](CO)NC(=O)[C@@H](NC(=O)[C@H](Cc1ccccc1)NC(=O)[C@@H](NC(=O)CNC(=O)[C@H](CCC(N)=O)NC(=O)C(C)(C)NC(=O)[C@@H](N)Cc1ccc(O)cc1)[C@@H](C)O)[C@@H](C)O)C(=O)N[C@@H](Cc1ccc(O)cc1)C(=O)N[C@@H](CC(C)C)C(=O)N[C@@H](CCC(=O)O)C(=O)N[C@@H](CCCCN)C(=O)N[C@@H](CCCCN)C(=O)N[C@@H](C)C(=O)N[C@@H](C)C(=O)N[C@@H](Cc1c[nH]cn1)C(=O)N[C@@H](CC(=O)O)C(=O)N[C@@H](Cc1ccccc1)C(=O)N[C@H](C(=O)N[C@@H](CCC(=O)O)C(=O)N[C@@H](Cc1c[nH]c2ccccc12)C(=O)N[C@@H](CC(C)C)C(=O)N[C@@H](CC(C)C)C(=O)N[C@@H](CO)C(=O)N[C@@H](C)C(N)=O)C(C)C
B3: Compound 11 (peptide)
peptide: YAQGTFTSDYSIYLDSKAAHDFVNWLLSA
HELM: PEPTIDE1{Y.[Aib].Q.G.T.F.T.S.D.Y.S.I.Y.L.D.S.K.A.A.H.D.F.V.N.W.L.L.S.A.[am]}$$$$V2.0
SMILES: CC[C@H](C)[C@H](NC(=O)[C@H](CO)NC(=O)[C@H](Cc1ccc(O)cc1)NC(=O)[C@H](CC(=O)O)NC(=O)[C@H](CO)NC(=O)[C@@H](NC(=O)[C@H](Cc1ccccc1)NC(=O)[C@@H](NC(=O)CNC(=O)[C@H](CCC(N)=O)NC(=O)C(C)(C)NC(=O)[C@@H](N)Cc1ccc(O)cc1)[C@@H](C)O)[C@@H](C)O)C(=O)N[C@@H](Cc1ccc(O)cc1)C(=O)N[C@@H](CC(C)C)C(=O)N[C@@H](CC(=O)O)C(=O)N[C@@H](CO)C(=O)N[C@@H](CCCCN)C(=O)N[C@@H](C)C(=O)N[C@@H](C)C(=O)N[C@@H](Cc1c[nH]cn1)C(=O)N[C@@H](CC(=O)O)C(=O)N[C@@H](Cc1ccccc1)C(=O)N[C@H](C(=O)N[C@@H](CC(N)=O)C(=O)N[C@@H](Cc1c[nH]c2ccccc12)C(=O)N[C@@H](CC(C)C)C(=O)N[C@@H](CC(C)C)C(=O)N[C@@H](CO)C(=O)N[C@@H](C)C(N)=O)C(C)C
B4: Compound 17 (peptide)
peptide: YAQGTFTSDYSIYLDEKAAKDFVEWLLSA
HELM: PEPTIDE1{Y.[Aib].Q.G.T.F.T.S.D.Y.S.I.Y.L.D.E.K.A.A.K.D.F.V.E.W.L.L.S.A.[am]}$$$$V2.0
SMILES: CC[C@H](C)[C@H](NC(=O)[C@H](CO)NC(=O)[C@H](Cc1ccc(O)cc1)NC(=O)[C@H](CC(=O)O)NC(=O)[C@H](CO)NC(=O)[C@@H](NC(=O)[C@H](Cc1ccccc1)NC(=O)[C@@H](NC(=O)CNC(=O)[C@H](CCC(N)=O)NC(=O)C(C)(C)NC(=O)[C@@H](N)Cc1ccc(O)cc1)[C@@H](C)O)[C@@H](C)O)C(=O)N[C@@H](Cc1ccc(O)cc1)C(=O)N[C@@H](CC(C)C)C(=O)N[C@@H](CC(=O)O)C(=O)N[C@@H](CCC(=O)O)C(=O)N[C@@H](CCCCN)C(=O)N[C@@H](C)C(=O)N[C@@H](C)C(=O)N[C@@H](CCCCN)C(=O)N[C@@H](CC(=O)O)C(=O)N[C@@H](Cc1ccccc1)C(=O)N[C@H](C(=O)N[C@@H](CCC(=O)O)C(=O)N[C@@H](Cc1c[nH]c2ccccc12)C(=O)N[C@@H](CC(C)C)C(=O)N[C@@H](CC(C)C)C(=O)N[C@@H](CO)C(=O)N[C@@H](C)C(N)=O)C(C)C
B5: Compound 18 (peptide)
peptide: YAQGTFTSDYSIYLESKAAHDFVEWLLSA
HELM: PEPTIDE1{Y.[Aib].Q.G.T.F.T.S.D.Y.S.I.Y.L.E.S.K.A.A.H.D.F.V.E.W.L.L.S.A.[am]}$$$$V2.0
SMILES: CC[C@H](C)[C@H](NC(=O)[C@H](CO)NC(=O)[C@H](Cc1ccc(O)cc1)NC(=O)[C@H](CC(=O)O)NC(=O)[C@H](CO)NC(=O)[C@@H](NC(=O)[C@H](Cc1ccccc1)NC(=O)[C@@H](NC(=O)CNC(=O)[C@H](CCC(N)=O)NC(=O)C(C)(C)NC(=O)[C@@H](N)Cc1ccc(O)cc1)[C@@H](C)O)[C@@H](C)O)C(=O)N[C@@H](Cc1ccc(O)cc1)C(=O)N[C@@H](CC(C)C)C(=O)N[C@@H](CCC(=O)O)C(=O)N[C@@H](CO)C(=O)N[C@@H](CCCCN)C(=O)N[C@@H](C)C(=O)N[C@@H](C)C(=O)N[C@@H](Cc1c[nH]cn1)C(=O)N[C@@H](CC(=O)O)C(=O)N[C@@H](Cc1ccccc1)C(=O)N[C@H](C(=O)N[C@@H](CCC(=O)O)C(=O)N[C@@H](Cc1c[nH]c2ccccc12)C(=O)N[C@@H](CC(C)C)C(=O)N[C@@H](CC(C)C)C(=O)N[C@@H](CO)C(=O)N[C@@H](C)C(N)=O)C(C)C
B6: Compound 13 (peptide)
peptide: YAQGTFTSDYSIYLDSKAAHDFVEWLLSAGPSSGAPPPS
HELM: PEPTIDE1{Y.[Aib].Q.G.T.F.T.S.D.Y.S.I.Y.L.D.S.K.A.A.H.D.F.V.E.W.L.L.S.A.G.P.S.S.G.A.P.P.P.S.[am]}$$$$V2.0
SMILES: CC[C@H](C)[C@H](NC(=O)[C@H](CO)NC(=O)[C@H](Cc1ccc(O)cc1)NC(=O)[C@H](CC(=O)O)NC(=O)[C@H](CO)NC(=O)[C@@H](NC(=O)[C@H](Cc1ccccc1)NC(=O)[C@@H](NC(=O)CNC(=O)[C@H](CCC(N)=O)NC(=O)C(C)(C)NC(=O)[C@@H](N)Cc1ccc(O)cc1)[C@@H](C)O)[C@@H](C)O)C(=O)N[C@@H](Cc1ccc(O)cc1)C(=O)N[C@@H](CC(C)C)C(=O)N[C@@H](CC(=O)O)C(=O)N[C@@H](CO)C(=O)N[C@@H](CCCCN)C(=O)N[C@@H](C)C(=O)N[C@@H](C)C(=O)N[C@@H](Cc1c[nH]cn1)C(=O)N[C@@H](CC(=O)O)C(=O)N[C@@H](Cc1ccccc1)C(=O)N[C@H](C(=O)N[C@@H](CCC(=O)O)C(=O)N[C@@H](Cc1c[nH]c2ccccc12)C(=O)N[C@@H](CC(C)C)C(=O)N[C@@H](CC(C)C)C(=O)N[C@@H](CO)C(=O)N[C@@H](C)C(=O)NCC(=O)N1CCC[C@H]1C(=O)N[C@@H](CO)C(=O)N[C@@H](CO)C(=O)NCC(=O)N[C@@H](C)C(=O)N1CCC[C@H]1C(=O)N1CCC[C@H]1C(=O)N1CCC[C@H]1C(=O)N[C@@H](CO)C(N)=O)C(C)C

Key:
Experiment in all cases: cell-based or functional assay
human GIP receptor [1] = target: T1, human GIP receptor (human, UniProt P48546 22-466)
T1 sequence: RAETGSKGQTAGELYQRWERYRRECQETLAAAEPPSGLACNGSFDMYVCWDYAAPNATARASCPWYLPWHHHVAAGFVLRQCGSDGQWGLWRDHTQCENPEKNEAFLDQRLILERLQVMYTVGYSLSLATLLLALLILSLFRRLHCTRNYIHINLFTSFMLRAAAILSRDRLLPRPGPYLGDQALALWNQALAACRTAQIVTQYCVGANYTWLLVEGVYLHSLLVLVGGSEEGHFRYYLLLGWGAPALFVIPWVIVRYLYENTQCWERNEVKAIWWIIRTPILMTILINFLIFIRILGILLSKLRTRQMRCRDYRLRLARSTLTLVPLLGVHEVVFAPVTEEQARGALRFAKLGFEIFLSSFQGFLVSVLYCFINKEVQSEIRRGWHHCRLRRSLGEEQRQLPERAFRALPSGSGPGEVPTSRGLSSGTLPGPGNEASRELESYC

human glucagon receptor [2] = target: T2, human glucagon receptor (human, UniProt P47871 26-477)
[3] = target: T3, human glucagon-like peptide 1 receptor (human, UniProt P43220 24-463)
human GIP receptor [4] = target: T1, human GIP receptor; remark: listed apart in the source
human glucagon receptor [5] = target: T2, human glucagon receptor; remark: listed apart in the source
[6] = target: T3, human glucagon-like peptide 1 receptor; remark: listed apart in the source

T2 sequence (P47871 26-477): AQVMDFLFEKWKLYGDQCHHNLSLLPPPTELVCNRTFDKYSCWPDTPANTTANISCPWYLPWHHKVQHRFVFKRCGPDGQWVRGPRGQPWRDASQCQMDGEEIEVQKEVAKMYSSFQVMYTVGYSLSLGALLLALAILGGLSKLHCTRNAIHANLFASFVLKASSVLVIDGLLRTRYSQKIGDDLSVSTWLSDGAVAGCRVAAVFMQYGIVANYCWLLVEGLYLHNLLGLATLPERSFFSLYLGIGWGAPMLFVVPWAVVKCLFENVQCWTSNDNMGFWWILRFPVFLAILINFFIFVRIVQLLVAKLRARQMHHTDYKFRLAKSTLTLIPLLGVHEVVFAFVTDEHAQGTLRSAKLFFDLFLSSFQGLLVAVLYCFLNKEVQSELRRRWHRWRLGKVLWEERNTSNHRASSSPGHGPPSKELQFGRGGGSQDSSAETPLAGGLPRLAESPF

Binder | EC50 (cAMP induction) (human GIP receptor [1]) [nM] | EC50 (cAMP induction) (human glucagon receptor [2]) [nM] | EC50 (cAMP induction) [3] [nM] | EC50 (cAMP induction) (human GIP receptor [4]) [nM] | EC50 (cAMP induction) (human glucagon receptor [5]) [nM] | EC50 (cAMP induction) [6] [nM]
B1 | 0.084 | 0.076 | 0.012 | 0.012 | 0.076 | 0.076
B2 | 0.06 | 0.1 | 0.013 | 0.013 | 0.1 | 0.1
B3 | 0.28 | 0.11 | 0.02 | 0.02 | 0.11 | 0.11
B4 | 0.091 | 0.16 | 0.011 | 0.013 | 0.16 | 0.16
B5 | 0.07 | 0.15 | 0.021 | 0.021 | 0.15 | 0.15
B6 | 0.083 | 0.24 | 0.0099 | 0.01 | 0.24 | 0.24
